Data reported in patent US20160244528A1 (SORRENTO THERAPEUTICS, published 2016).
Residue numbers refer to the chain shown, from its start.

T1: mouse CD137/Fc (mouse, UniProt P20334 24-187)
T1 construct: Coated on the ELISA plate at 2 µg/mL; also called murine CD137; not shown: Fc part
T1 sequence (looked up): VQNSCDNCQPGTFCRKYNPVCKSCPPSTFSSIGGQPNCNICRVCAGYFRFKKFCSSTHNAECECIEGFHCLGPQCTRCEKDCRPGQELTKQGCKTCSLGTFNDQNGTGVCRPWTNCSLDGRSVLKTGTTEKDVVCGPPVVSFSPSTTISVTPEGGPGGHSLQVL

B1: anti-CD137 antibody D6 (antibody, V domains shown)
VH: QMQLVQSGAEVKKPGASVKVSCKASGYTFTGYYMHWVRQAPGQGLEWMGWINPNSGGTNYAQKFQGRVTITRDTSASTAYMELSSLRSEDTAVYYCAREGEAVGLDLDYWGQGTLVTVSS
VL: SYELTQPPSVSVAPGKTARITCGGNNIGSKSVHWYQQKPGQAPVLVIYYDSDRPSGIPERFSGSNSGNTATLTISRVEAGDEADYYCQVWDSSSVVFGGGTQLTVL
notes: Fully human antibody, captured through anti-human Fc in SPR and detected with anti-human Lambda in ELISA
B2: anti-CD137 antibody MSA11 (antibody, V domains shown)
VH: B1 VH with T28S, I51V, N54K, E101W, V103R, G104R, L105I, Y109E
VL: B1 VL
notes: Variant of D6 with the same light chain variable domain
B3: anti-CD137 antibody MSH1 (antibody, V domains shown)
VH: B1 VH with T28N, T30G, I51V, N54H, V103W, Y109L
VL: B1 VL
notes: as for B2
B4: anti-CD137 antibody MC8 (antibody, V domains shown)
VH: B1 VH with T28M, F29P, T30D, N54R, S55T, E101A, V103F, G104R, D106E, Y109A
VL: B1 VL
notes: as for B2
B5: anti-CD137 antibody MSB7 (antibody, V domains shown)
VH: B1 VH with T28S, T30S, I51V, N54M, E101M, V103M, G104R, D106E, Y109K
VL: B1 VL
notes: as for B2
B6: anti-CD137 antibody MB3 (antibody, V domains shown)
VH: B1 VH with T28Q, F29M, T30R
VL: B1 VL
notes: as for B2
B7: anti-CD137 antibody MSC8 (antibody, V domains shown)
VH: B1 VH with T28N, T30G, I51V, N54K
VL: B1 VL
notes: as for B2
B8: anti-CD137 antibody MD4 (antibody, V domains shown)
VH: B1 VH with T28N, F29W, N54M, S55A, E101W, V103R, L105V, D106E, Y109M
VL: B1 VL
notes: as for B2
B9: anti-CD137 antibody MB12 (antibody, V domains shown)
VH: B1 VH with T28S, F29L, T30E
VL: B1 VL
notes: as for B2

Target: T2, Recombinant human CD137/His (human, UniProt Q07011 24-186)
T2 construct: Analyte of the SPR assay; also called 4-1BB; TNFRSF9; not shown: His tag
Assay: SPR (Biacore), antibody captured on anti-human Fc, human CD137/His as analyte, 1:1 fit
Procedure: This example illustrates binding affinities of exemplary anti-CD137 antibodies disclosed herein. Affinities were determined using surface plasmon resonance (Biacore). Briefly, anti-human Fc antibody (GE, BR-1008-39) was immobilized on CM5 sensor chip to approximately 1000 RU using standard NHS/EDC coupling methodology. Antibodies (about 10 μg/ml) were captured for 60 s at a flow rate 10 μl/min Recombinant human CD137/His was serially diluted in running buffer (HBS-EP). All measurements were conducted with a flow rate of 30 μL/min Surfaces were regenerated with 3M MgCl₂ for 60 s. A 1:1 (Langmuir) binding model was used to fit the data.

Binder | Kd | koff | kon | Ka
B1 | 203 nM | 0.0814 s⁻¹ | 401000 M⁻¹ s⁻¹ | 
B2 |  | 0.00631 s⁻¹ | 135000 M⁻¹ s⁻¹ | 2.13e+07 M⁻¹
B3 |  | 0.0324 s⁻¹ | 369000 M⁻¹ s⁻¹ | 1.14e+07 M⁻¹
B4 |  | 0.00628 s⁻¹ | 208000 M⁻¹ s⁻¹ | 3.32e+07 M⁻¹
B5 |  | 0.00756 s⁻¹ | 456000 M⁻¹ s⁻¹ | 6.03e+07 M⁻¹
B6 |  | 0.0678 s⁻¹ | 296000 M⁻¹ s⁻¹ | 
B7 |  | 0.0615 s⁻¹ | 282000 M⁻¹ s⁻¹ | 
B8 | 88.9 nM | 0.0512 s⁻¹ | 576000 M⁻¹ s⁻¹ | 1.12e+07 M⁻¹
B9 |  | 0.0669 s⁻¹ | 433000 M⁻¹ s⁻¹ | 6.47e+06 M⁻¹

Target: T1, mouse CD137/Fc
Assay: ELISA, plate coated with mouse CD137/Fc at 2 µg/mL, detection with HRP anti-human Lambda, OD 450 nm
Procedure: A Maxisorp plate was coated with recombinant human CD137/Fc or mouse CD137/Fc at 2 μg/mL at 4° C., overnight. The plate was blocked for 1 hour at room temperature, washed 3 times with PBS-Tween (PBST), then anti-CD137 antibodies (˜1 μg/mL) diluted in casein were added and incubated for 30 min with shaking. The plate was washed 3 times with PBST, horseradish peroxidase (HRP)-conjugated mouse anti-human Lambda (1:1000 in casein) was added, then 3,3′,5,5′-Tetramethylbenzidine (TMB) was added as substrate and developed about 5 min. 2M H₂SO₄ was used to stop the reaction and the OD was read at 450 nm.

Binder | binding result
B1 | no binding
B6 | no binding
B7 | no binding
B9 | no binding
